The target of this assay is ICP1 Cas1 (Vibrio cholerae phage ICP1_2011_A).

Regarding ICP1 Cas1 (natural protein), the stoichiometry N is 2.

The term stoichiometry N denotes a count of units in the complex or per binding partner.

Values taken from publication doi:10.1101/2024.03.09.584257.
